{
  "source": "paper PMC3744072",
  "biological_target": "matrilin-3 (wild type, mouse) (mouse (endogenous in mouse cartilage and chondrocytes)) (UniProt O35701)",
  "assay": "non-reducing SDS-PAGE and Western blot; total protein lysates of isolated chondrocytes of 5-day-old mice, 4-12% gels, non-reduced against reduced (0.1 M DTT); oligomers assigned by apparent size",
  "data": [
    {"substance": "matrilin-3 (wild type, mouse) (from UniProt O35701 28-481) (natural protein)", "values": [
      {"measurement": "stoichiometry N", "result": 4}
    ]}
  ]
}
